Assay results published in article PMC9482650, “Quantitative fragmentomics allow affinity mapping of interactomes” (Nature Communications, 2022).

T1: FRMPD1, Q5SYB0
T1 sequence (Q5SYB0 52-145, limits assumed, looked up): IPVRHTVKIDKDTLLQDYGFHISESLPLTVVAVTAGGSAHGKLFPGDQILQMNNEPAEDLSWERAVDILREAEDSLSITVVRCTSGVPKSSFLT

T2: SNTG2, Q9NY99
T2 sequence (Q9NY99 68-166, limits assumed, looked up): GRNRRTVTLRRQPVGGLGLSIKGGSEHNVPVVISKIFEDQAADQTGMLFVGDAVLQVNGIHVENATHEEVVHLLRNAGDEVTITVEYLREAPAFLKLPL

T3: DVL3, Q92997
T3 sequence (Q92997 244-331, limits assumed, looked up): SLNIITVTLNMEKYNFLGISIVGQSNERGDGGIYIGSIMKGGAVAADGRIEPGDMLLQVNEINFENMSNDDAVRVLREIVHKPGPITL

T4: TJP3_3, O95049
T4 sequence (O95049 375-456, limits assumed, looked up): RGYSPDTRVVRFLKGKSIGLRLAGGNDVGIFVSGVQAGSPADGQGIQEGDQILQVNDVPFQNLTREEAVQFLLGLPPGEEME

T5: HTRA3, P83110
T5 sequence (P83110 354-453, limits assumed, looked up): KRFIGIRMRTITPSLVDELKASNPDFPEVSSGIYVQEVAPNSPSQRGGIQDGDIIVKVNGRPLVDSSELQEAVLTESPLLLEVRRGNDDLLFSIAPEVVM

T6: PDZD7_3, Q9H5P4
T6 sequence (Q9H5P4 857-944, limits assumed, looked up): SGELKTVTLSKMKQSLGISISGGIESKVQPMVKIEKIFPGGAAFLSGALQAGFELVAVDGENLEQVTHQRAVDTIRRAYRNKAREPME

T7: TX1BP3, O14907
T7 sequence (O14907 10-122, limits assumed, looked up): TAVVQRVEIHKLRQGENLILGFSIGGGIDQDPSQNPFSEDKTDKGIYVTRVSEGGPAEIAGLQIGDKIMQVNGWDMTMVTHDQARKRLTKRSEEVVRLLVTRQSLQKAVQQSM

T8: LIN7C, Q9NUP9
T8 sequence (Q9NUP9 88-185, limits assumed, looked up): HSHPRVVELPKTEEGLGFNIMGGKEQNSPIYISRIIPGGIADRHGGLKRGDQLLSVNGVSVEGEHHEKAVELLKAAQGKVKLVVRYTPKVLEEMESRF

T9: SNTA1, Q13424
T9 sequence (Q13424 82-180, limits assumed, looked up): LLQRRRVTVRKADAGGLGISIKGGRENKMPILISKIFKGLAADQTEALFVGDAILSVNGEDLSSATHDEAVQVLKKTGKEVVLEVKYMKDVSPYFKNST

T10: APBA3_1, O96018
T10 sequence (O96018 389-490, limits assumed, looked up): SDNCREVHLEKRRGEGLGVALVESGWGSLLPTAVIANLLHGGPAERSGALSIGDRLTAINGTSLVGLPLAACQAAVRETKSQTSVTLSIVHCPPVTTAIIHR

T11: RHPN1, Q8TCX5
T11 sequence (Q8TCX5 508-602, limits assumed, looked up): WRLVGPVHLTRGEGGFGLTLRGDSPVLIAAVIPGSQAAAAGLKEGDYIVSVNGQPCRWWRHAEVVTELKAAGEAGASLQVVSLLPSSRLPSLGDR

T12: PTPN13_1, Q12923
T12 sequence (Q12923 1088-1188, limits assumed, looked up): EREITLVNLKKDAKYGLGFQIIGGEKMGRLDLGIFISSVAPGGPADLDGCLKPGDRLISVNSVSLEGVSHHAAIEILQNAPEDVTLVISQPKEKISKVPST


Target: MAST1, Q9Y2H9
Test: holdup assay
Design: key: below the threshold = too weak to quantify, mostly under pKd 3.1 to 4
Conditions: plain residues with an end cap or a label only (N-terminal biotin on a linker: ado-ado)

MAST1, Q9Y2H9, sequence (Q9Y2H9 962-1065): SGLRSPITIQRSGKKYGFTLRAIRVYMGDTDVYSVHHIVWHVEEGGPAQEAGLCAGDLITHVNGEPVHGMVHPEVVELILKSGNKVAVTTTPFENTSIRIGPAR

Row | pKd | Binder
1 | 4.69 | SKSLERATQL [COMMD3, Q9UBI1]
2 | 3.73 | LRYARPADAL [PPP1R3G, B7ZBB8]

Target: T1, FRMPD1, Q5SYB0
Test: holdup assay
Design: key: below the threshold = too weak to quantify, mostly under pKd 3.1 to 4
Conditions: plain residues with an end cap or a label only (N-terminal biotin on a linker: ado-ado)

Row | pKd | Binder
3 | below the threshold | SKSLERATQL [COMMD3, Q9UBI1]
4 | below the threshold | LRYARPADAL [PPP1R3G, B7ZBB8]

Target: FRMPD2_2, Q68DX3
Test: holdup assay
Design: key: below the threshold = too weak to quantify, mostly under pKd 3.1 to 4
Conditions: plain residues with an end cap or a label only (N-terminal biotin on a linker: ado-ado)

FRMPD2_2, Q68DX3, sequence (Q68DX3 944-1038): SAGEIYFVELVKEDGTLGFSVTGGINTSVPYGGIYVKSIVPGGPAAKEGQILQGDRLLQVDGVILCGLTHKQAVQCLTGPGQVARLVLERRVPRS

Row | pKd | Binder
5 | 3.65 | SKSLERATQL [COMMD3, Q9UBI1]
6 | below the threshold | LRYARPADAL [PPP1R3G, B7ZBB8]

Target: T2, SNTG2, Q9NY99
Test: holdup assay
Design: key: below the threshold = too weak to quantify, mostly under pKd 3.1 to 4
Conditions: plain residues with an end cap or a label only (N-terminal biotin on a linker: ado-ado)

Row | pKd | Binder
7 | below the threshold | SKSLERATQL [COMMD3, Q9UBI1]
8 | below the threshold | LRYARPADAL [PPP1R3G, B7ZBB8]

Target: T3, DVL3, Q92997
Test: holdup assay
Design: key: below the threshold = too weak to quantify, mostly under pKd 3.1 to 4
Conditions: plain residues with an end cap or a label only (N-terminal biotin on a linker: ado-ado)

Row | pKd | Binder
9 | 3.58 | SKSLERATQL [COMMD3, Q9UBI1]
10 | below the threshold | LRYARPADAL [PPP1R3G, B7ZBB8]

Target: T4, TJP3_3, O95049
Test: holdup assay
Design: key: below the threshold = too weak to quantify, mostly under pKd 3.1 to 4
Conditions: plain residues with an end cap or a label only (N-terminal biotin on a linker: ado-ado)

Row | pKd | Binder
11 | below the threshold | SKSLERATQL [COMMD3, Q9UBI1]
12 | below the threshold | LRYARPADAL [PPP1R3G, B7ZBB8]

Target: DLG2_3, Q15700
Test: holdup assay
Design: key: below the threshold = too weak to quantify, mostly under pKd 3.1 to 4
Conditions: plain residues with an end cap or a label only (N-terminal biotin on a linker: ado-ado)

Row | pKd | Binder
13 | 3.71 | SKSLERATQL [COMMD3, Q9UBI1]
14 | below the threshold | LRYARPADAL [PPP1R3G, B7ZBB8]

Target: T5, HTRA3, P83110
Test: holdup assay
Design: key: below the threshold = too weak to quantify, mostly under pKd 3.1 to 4
Conditions: plain residues with an end cap or a label only (N-terminal biotin on a linker: ado-ado)

Row | pKd | Binder
15 | below the threshold | SKSLERATQL [COMMD3, Q9UBI1]
16 | below the threshold | LRYARPADAL [PPP1R3G, B7ZBB8]

Target: FRMPD3, Q5JV73
Test: holdup assay
Design: key: below the threshold = too weak to quantify, mostly under pKd 3.1 to 4
Conditions: plain residues with an end cap or a label only (N-terminal biotin on a linker: ado-ado)

FRMPD3, Q5JV73, sequence (Q5JV73 12-100): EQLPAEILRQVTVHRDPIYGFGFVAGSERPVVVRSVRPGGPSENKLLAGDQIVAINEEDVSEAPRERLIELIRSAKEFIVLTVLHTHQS

Row | pKd | Binder
17 | below the threshold | SKSLERATQL [COMMD3, Q9UBI1]
18 | below the threshold | LRYARPADAL [PPP1R3G, B7ZBB8]

Target: T6, PDZD7_3, Q9H5P4
Test: holdup assay
Design: key: below the threshold = too weak to quantify, mostly under pKd 3.1 to 4
Conditions: plain residues with an end cap or a label only (N-terminal biotin on a linker: ado-ado)

Row | pKd | Binder
19 | 4.23 | SKSLERATQL [COMMD3, Q9UBI1]
20 | below the threshold | LRYARPADAL [PPP1R3G, B7ZBB8]

Target: T7, TX1BP3, O14907
Test: holdup assay
Design: key: below the threshold = too weak to quantify, mostly under pKd 3.1 to 4
Conditions: plain residues with an end cap or a label only (N-terminal biotin on a linker: ado-ado)

Row | pKd | Binder
21 | below the threshold | SKSLERATQL [COMMD3, Q9UBI1]
22 | below the threshold | LRYARPADAL [PPP1R3G, B7ZBB8]

Target: PDZRN4_1, Q6ZMN7
Test: holdup assay
Design: key: below the threshold = too weak to quantify, mostly under pKd 3.1 to 4
Conditions: plain residues with an end cap or a label only (N-terminal biotin on a linker: ado-ado)

PDZRN4_1, Q6ZMN7, sequence (Q6ZMN7 213-318): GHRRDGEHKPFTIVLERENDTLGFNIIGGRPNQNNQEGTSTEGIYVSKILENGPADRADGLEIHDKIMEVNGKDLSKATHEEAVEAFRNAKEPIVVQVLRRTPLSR

Row | pKd | Binder
23 | 3.89 | SKSLERATQL [COMMD3, Q9UBI1]
24 | below the threshold | LRYARPADAL [PPP1R3G, B7ZBB8]

Target: T8, LIN7C, Q9NUP9
Test: holdup assay
Design: key: below the threshold = too weak to quantify, mostly under pKd 3.1 to 4
Conditions: plain residues with an end cap or a label only (N-terminal biotin on a linker: ado-ado)

Row | pKd | Binder
25 | below the threshold | SKSLERATQL [COMMD3, Q9UBI1]
26 | below the threshold | LRYARPADAL [PPP1R3G, B7ZBB8]

Target: ARHGEF12, Q9NZN5-2
Test: holdup assay
Design: key: below the threshold = too weak to quantify, mostly under pKd 3.1 to 4
Conditions: plain residues with an end cap or a label only (N-terminal biotin on a linker: ado-ado)

ARHGEF12, Q9NZN5-2, sequence (Q9NZN5 other isoform, or with tags, fused parts or gaps): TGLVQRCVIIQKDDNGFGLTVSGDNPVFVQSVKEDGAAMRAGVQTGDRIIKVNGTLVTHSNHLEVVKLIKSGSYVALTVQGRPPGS

Row | pKd | Binder
27 | 4.79 | SKSLERATQL [COMMD3, Q9UBI1]
28 | below the threshold | LRYARPADAL [PPP1R3G, B7ZBB8]

Target: GRIP2_3, Q9C0E4
Test: holdup assay
Design: key: below the threshold = too weak to quantify, mostly under pKd 3.1 to 4
Conditions: plain residues with an end cap or a label only (N-terminal biotin on a linker: ado-ado)

GRIP2_3, Q9C0E4, sequence (Q9C0E4 238-339): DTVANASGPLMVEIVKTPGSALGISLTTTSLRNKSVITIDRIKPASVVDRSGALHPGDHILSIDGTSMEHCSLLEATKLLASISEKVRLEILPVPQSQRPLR

Row | pKd | Binder
29 | below the threshold | SKSLERATQL [COMMD3, Q9UBI1]
30 | below the threshold | LRYARPADAL [PPP1R3G, B7ZBB8]

Target: GORASP1, Q9BQQ3
Test: holdup assay
Design: key: below the threshold = too weak to quantify, mostly under pKd 3.1 to 4
Conditions: plain residues with an end cap or a label only (N-terminal biotin on a linker: ado-ado)

GORASP1, Q9BQQ3, sequence (Q9BQQ3 1-208): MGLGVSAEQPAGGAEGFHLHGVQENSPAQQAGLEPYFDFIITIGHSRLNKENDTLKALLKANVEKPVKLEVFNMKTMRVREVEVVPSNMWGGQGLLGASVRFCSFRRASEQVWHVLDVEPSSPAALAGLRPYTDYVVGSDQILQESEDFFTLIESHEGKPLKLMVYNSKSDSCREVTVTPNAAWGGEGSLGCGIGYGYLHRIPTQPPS

Row | pKd | Binder
31 | 3.78 | SKSLERATQL [COMMD3, Q9UBI1]
32 | below the threshold | LRYARPADAL [PPP1R3G, B7ZBB8]

Target: T9, SNTA1, Q13424
Test: holdup assay
Design: key: below the threshold = too weak to quantify, mostly under pKd 3.1 to 4
Conditions: plain residues with an end cap or a label only (N-terminal biotin on a linker: ado-ado)

Row | pKd | Binder
33 | 4.06 | SKSLERATQL [COMMD3, Q9UBI1]
34 | below the threshold | LRYARPADAL [PPP1R3G, B7ZBB8]

Target: FRMPD2_1, Q68DX3
Test: holdup assay
Design: key: below the threshold = too weak to quantify, mostly under pKd 3.1 to 4
Conditions: plain residues with an end cap or a label only (N-terminal biotin on a linker: ado-ado)

FRMPD2_1, Q68DX3, sequence (Q68DX3 770-861): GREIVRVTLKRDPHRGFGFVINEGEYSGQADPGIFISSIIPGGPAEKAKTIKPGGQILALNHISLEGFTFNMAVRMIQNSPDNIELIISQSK

Row | pKd | Binder
35 | below the threshold | SKSLERATQL [COMMD3, Q9UBI1]
36 | below the threshold | LRYARPADAL [PPP1R3G, B7ZBB8]

Target: T10, APBA3_1, O96018
Test: holdup assay
Design: key: below the threshold = too weak to quantify, mostly under pKd 3.1 to 4
Conditions: plain residues with an end cap or a label only (N-terminal biotin on a linker: ado-ado)

Row | pKd | Binder
37 | below the threshold | SKSLERATQL [COMMD3, Q9UBI1]
38 | below the threshold | LRYARPADAL [PPP1R3G, B7ZBB8]

Target: Inadl_4, Q8NI35
Test: holdup assay
Design: key: below the threshold = too weak to quantify, mostly under pKd 3.1 to 4
Conditions: plain residues with an end cap or a label only (N-terminal biotin on a linker: ado-ado)

Inadl_4, Q8NI35, sequence (Q8NI35 547-651): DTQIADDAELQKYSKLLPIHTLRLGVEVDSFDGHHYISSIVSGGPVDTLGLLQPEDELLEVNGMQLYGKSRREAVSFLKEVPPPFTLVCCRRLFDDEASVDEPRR

Row | pKd | Binder
39 | below the threshold | SKSLERATQL [COMMD3, Q9UBI1]
40 | below the threshold | LRYARPADAL [PPP1R3G, B7ZBB8]

Target: T11, RHPN1, Q8TCX5
Test: holdup assay
Design: key: below the threshold = too weak to quantify, mostly under pKd 3.1 to 4
Conditions: plain residues with an end cap or a label only (N-terminal biotin on a linker: ado-ado)

Row | pKd | Binder
41 | 4.13 | SKSLERATQL [COMMD3, Q9UBI1]
42 | below the threshold | LRYARPADAL [PPP1R3G, B7ZBB8]

Target: PTPN3, P26045
Test: holdup assay
Design: key: below the threshold = too weak to quantify, mostly under pKd 3.1 to 4
Conditions: plain residues with an end cap or a label only (N-terminal biotin on a linker: ado-ado)

PTPN3, P26045, sequence (P26045 505-587): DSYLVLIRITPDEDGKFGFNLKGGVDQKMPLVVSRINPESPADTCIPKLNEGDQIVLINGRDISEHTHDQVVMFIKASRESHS

Row | pKd | Binder
43 | 4.91 | SKSLERATQL [COMMD3, Q9UBI1]
44 | below the threshold | LRYARPADAL [PPP1R3G, B7ZBB8]

Target: MAGI2_4, Q86UL8
Test: holdup assay
Design: key: below the threshold = too weak to quantify, mostly under pKd 3.1 to 4
Conditions: plain residues with an end cap or a label only (N-terminal biotin on a linker: ado-ado)

MAGI2_4, Q86UL8, sequence (Q86UL8 772-865): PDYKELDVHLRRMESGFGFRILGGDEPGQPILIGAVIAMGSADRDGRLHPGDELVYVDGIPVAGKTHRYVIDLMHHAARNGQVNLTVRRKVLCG

Row | pKd | Binder
45 | 3.94 | SKSLERATQL [COMMD3, Q9UBI1]
46 | below the threshold | LRYARPADAL [PPP1R3G, B7ZBB8]

Target: Inadl_5, Q8NI35
Test: holdup assay
Design: key: below the threshold = too weak to quantify, mostly under pKd 3.1 to 4
Conditions: plain residues with an end cap or a label only (N-terminal biotin on a linker: ado-ado)

Inadl_5, Q8NI35, sequence (Q8NI35 673-780): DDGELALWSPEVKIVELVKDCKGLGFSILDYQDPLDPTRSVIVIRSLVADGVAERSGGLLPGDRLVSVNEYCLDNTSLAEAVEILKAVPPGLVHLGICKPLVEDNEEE

Row | pKd | Binder
47 | below the threshold | SKSLERATQL [COMMD3, Q9UBI1]
48 | below the threshold | LRYARPADAL [PPP1R3G, B7ZBB8]

Target: T12, PTPN13_1, Q12923
Test: holdup assay
Design: key: below the threshold = too weak to quantify, mostly under pKd 3.1 to 4
Conditions: plain residues with an end cap or a label only (N-terminal biotin on a linker: ado-ado)

Row | pKd | Binder
49 | below the threshold | SKSLERATQL [COMMD3, Q9UBI1]
50 | below the threshold | LRYARPADAL [PPP1R3G, B7ZBB8]
